Tests used:
blood = assay: Relaxation time of GPEN-DTES-Gd in blood in mouse after intravenous administration (ex vivo test, Test 2); parameters: species or system ICR female mouse; settings: 0.025 mmol/kg in terms of Gd, 15 minutes after administration
Procedure: Relaxation time of GPEN-DTES-Gd in blood in mouse after intravenous administration (ex vivo test)
GPEN-DTES-Gd (Gd concentration: 75 mM) (0.025 mmol/kg in terms of Gd) was administered to a thiopental anesthetized ICR female mouse (body weight: 44 g) through the tail vein. At 15 minutes after administration, the blood was taken from the aorta descendence, and the relaxation time (T1, msec) of the blood at room temperature (24° to 26° C.) was determined with a 6.35T NMR apparatus (manufactured by Nihondenshi K. K., Japan).
As a control, blood was taken from the aorta descendence of a thiopental anesthetized ICR female mouse (body weight: 55 g) and, according to the same manner, the relaxation time was determined.

[1] = Relaxivity of GPEN-DTES-Gd and GTRI-DTES-Gd, proton relaxation time by 6.35T NMR (in vitro test, Test 1); assay type: physicochemical; settings: for R1 (relaxivity on T1): 24° to 26° C., calculated from relaxation times
Procedure: Relaxivity of GPEN-DTES-Gd and GTRI-DTES-Gd (in vitro test)
An appropriate amount of GPEN-DTES-Gd and GTRI-DTES-Gd were dissolved in distilled water. The relation to water proton exposed to these compounds was determined as a proton relaxation time (T1 and T2, msec) at room temperature (24° to 26° C.) using NMR (6.35T, manufactured by Nihondenshi K. K., Japan).
GPEN-DTES-Gd (2.3 mM) shortened remarkably the T1 value of water about 60 times and the T2 value of water 85 times. And GTRI-DTES-Gd (2.9 mM) shortened remarkably the T1 value of water about 70 times and the T2 value about 85 times. The relaxivity on T1 and T2 [each R1 and R2, (mM.S)^-1 ] were calculated based on the values in Tables 1 and 2.

heart = assay: Contrast enhancement of the heart in rat at 1 hour after intravenous administration, MRI (in vivo test, Test 3); parameters: species or system Sprague-Dawley female rat; settings: 1 hour after i.v. administration, 0.094 mmol/kg Gd vs 0.1 mmol/kg DTPA-Gd, 1.5T, T1 weighted spin echo
Procedure: Contrast enhancement of the heart in rat at 1 hour after intravenously administration of GPEN-DTES-Gd (in vivo test)
A solution of GPEN-DTES-Gd (Gd concentration: 75.1 mM) (0.094 mmol/kg in terms of Gd) was administered to a thiopental anesthetized Sprague-Dawley female rat (214 g, 9-weeks old) through a cannula fixed to femoral vein. At 1 hour after administration, the animal was sacrificed by administration of pentobarbital solution (1 ml) through the above cannula, fixed at prone position in the magnetic field of a MRI spectrometer. MRI measurement (transverse sectional view) of the chest region including the heart was carried out.
As a control, DTPA-Gd (MAGNEVIST®) was administered to a Sprague-Dawleyfemale rat (body weight: 204 g, 9-weeks old) through a cannula fixed at femoral vein (0.1 mmol/kg) and the measurement (transverse sectional view) of the chest region including the heart was carried out as described above.
The apparatus was SIGMA (manufactured by GE, U.S.A.) with magnetic field intensity of 1.5T and, as an imaging coil, a 26 cm .phi.bird-cage type head QD coil was used. Imaging was carried out according to spin echo method of T1 weighted (TR/TE, 600/30 msec) under the condition of 10 mm in slice thickness, a resolution of 256×128.

[2] = in vivo; cited from earlier work
[3] = DTPA-Gd lower than Gd itself; cited from earlier work
[4] = 2.3 mM in distilled water, 6.35T, room temperature (24° to 26° C.)

Compound	T1 relaxation time effect in blood compared with control mouse (blood)	T1 in blood (blood; tail vein, 6.35T, 24° to 26° C.)	Shortening of the T1 value of water ([1]; 2.3 mM)	Shortening of the T2 value of water ([1]; 2.3 mM)	T1 relaxation time [1, 4]	T2 relaxation time [1, 4]	in vitro relaxation effect ([1]; in words, compared with DTPA-Gd)	T1 relaxivity in water ([1]; magnetic field intensity 6.35T, 25° C.)	R1 (relaxivity on T1) ([1]; water, 6.35T)	T1 relaxivity relative to DTPA-Gd ([1]; water, 6.35T, 25° C.)	MRI signal intensity / contrast effect in the heart relative to DTPA-Gd (MAGNEVIST®) (heart)	excretion into the urine (in words) [2]	relaxivity relative to Gd itself [3]
(galactosamino-pentamer)-[1-(p-isothiocyanatebenzyl)-diethylenetriaminepentaacetic acid]gadolinate [GPEN-DTES-Gd]	about 2.3 times	769 ms	about 60 times	85 times	55 ms	26 ms	predominantly higher than that of DTPA-Gd	7.6 (mM.S)^-1	7.6 (mM · S)^-1	about two	about 1.8 times	–	–
O=C([O-])CN(CCN(CC(=O)[O-])CC(=O)O)CCN(CC(=O)[O-])CC(=O)O.[Gd+3] [DTPA-Gd, (Diethylenetriaminepentaacetic acid)gadolinate]	–	–	–	–	–	–	–	–	3.9 (mM · S)^-1	–	–	rapidly excreted into the urine after administration	about 1/2
